Target: T1, DNAJB1-PRKACA fusion protein peptide on HLA-A*68:02 (human)
T1 peptide: EIFDRYGEEV
Test: multimer staining
Text: Jurkat cells were engineered to express the FLC-P8R-4 TCR.

B1: P9R-4 (TCR)
alpha TRAV16*01 TRAJ4*01 CDR3: CALDMFSGGYNKLIF
beta TRBV15*01 TRBJ2-7*01 CDR3: CATSRVKTSGGYEQYF
- binding result: recognises
